The chains are these.
T1: Mpl-X (the soluble extra-cellular domain of the Mpl receptor) (human, UniProt P40238 26-491, coupled to CNBr activated Sepharose resin)
T1 construct: extracellular domain; also called hu-MPL-X
T1 sequence (looked up): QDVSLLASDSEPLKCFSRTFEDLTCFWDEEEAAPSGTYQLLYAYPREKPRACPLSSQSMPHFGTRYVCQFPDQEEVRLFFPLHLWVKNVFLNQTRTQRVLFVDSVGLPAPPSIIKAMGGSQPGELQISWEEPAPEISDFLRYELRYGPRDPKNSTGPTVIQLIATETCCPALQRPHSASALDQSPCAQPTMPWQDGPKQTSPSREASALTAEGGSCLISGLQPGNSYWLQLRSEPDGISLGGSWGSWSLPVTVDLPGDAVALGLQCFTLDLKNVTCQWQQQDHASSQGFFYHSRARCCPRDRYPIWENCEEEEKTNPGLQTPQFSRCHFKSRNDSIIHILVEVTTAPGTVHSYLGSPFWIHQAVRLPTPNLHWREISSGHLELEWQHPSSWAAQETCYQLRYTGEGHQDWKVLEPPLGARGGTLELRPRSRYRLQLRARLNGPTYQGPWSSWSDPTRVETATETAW

B1: CHO-derived MGDF 1-163 (ligand)
chain: SPAPPACDLRVLSKLLRDSHVLHSRLSQCPEVHPLPTPVLLPAVDFSLGEWKTQMEETKAQDILGAVTLLLEGVMAARGQLGPTCLSSLLGQLSGQVRLLLGALQSLLGTQLPPQGRTTAHKDPNAIFLSFQHLLRGKVRFLMLVGGSTLCVRRAPPTTAVPS
modifications: CHO-expressed material carries O-linked carbohydrate, which the letters do not show.
notes: see the note on m1; also called r-HuMGDF 1-163 (CHO)
B2: CHO-derived MGDF 1-153 (ligand)
chain: SPAPPACDLRVLSKLLRDSHVLHSRLSQCPEVHPLPTPVLLPAVDFSLGEWKTQMEETKAQDILGAVTLLLEGVMAARGQLGPTCLSSLLGQLSGQVRLLLGALQSLLGTQLPPQGRTTAHKDPNAIFLSFQHLLRGKVRFLMLVGGSTLCVR
modifications: CHO-expressed material carries O-linked carbohydrate, which the letters do not show.
notes: see the note on m1; also called r-HuMGDF 1-153 (CHO)

Where “and” joins values, the source holds several entries; their conditions need not be identical. Identical values can stand only once. Where only a bound is given, the exact number is not on record here.

In the first assay the target is full length human Mpl receptor on 32D-MPL cells (human) (UniProt P40238). Put plainly: cell-based or functional assay.
Take [Asn38, Thr40] MGDF 1-174 (ligand): the In Vitro Activity (units/ml), 32D-MPL cell proliferation was less than 10 units/ml and the Specific Activity (units/ng), 32D-MPL cell proliferation / MGDF ELISA is less than 8 units/ng.
The matching figures for [Asn30, Thr32] MGDF 1-174 (ligand): 8830 units/ml and 232 units/ng.
Turning to [Asn82, Ala83] MGDF 1-174 (ligand), the In Vitro Activity (units/ml), 32D-MPL cell proliferation is 2660 units/ml and 3080 units/ml; the Specific Activity (units/ng), 32D-MPL cell proliferation / MGDF ELISA is 443 units/ng and 655 units/ng.
For [Asn92] MGDF 1-174 (ligand), the In Vitro Activity (units/ml), 32D-MPL cell proliferation amounted to 1970 units/ml and the Specific Activity (units/ng), 32D-MPL cell proliferation / MGDF ELISA turned out to be 188 units/ng.
[Asn58, Thr60] MGDF 1-174 (ligand): the In Vitro Activity (units/ml), 32D-MPL cell proliferation turned out to be 4850 units/ml and the Specific Activity (units/ng), 32D-MPL cell proliferation / MGDF ELISA came out at 271 units/ng.
The matching figures for [Asn53, Thr55] MGDF 1-174 (ligand): 18000 units/ml and 269 units/ng.
The corresponding values for “[Ser36, Asn38, Thr40] MGDF 1-174 (ligand)” are less than 10 units/ml and less than 8 units/ng.
For [Asn120, Thr122] MGDF 1-174 (ligand), the In Vitro Activity (units/ml), 32D-MPL cell proliferation was 5940 units/ml and 9690 units/ml; the Specific Activity (units/ng), 32D-MPL cell proliferation / MGDF ELISA was 291 units/ng and 288 units/ng.
Molecule [Asn25] MGDF 1-174 (ligand) had an In Vitro Activity (units/ml), 32D-MPL cell proliferation of 636 units/ml and a Specific Activity (units/ng), 32D-MPL cell proliferation / MGDF ELISA of 344 units/ng.
The molecule “[Asn30, Thr32, Asn120, Thr122] MGDF 1-174 (ligand)” registered an In Vitro Activity (units/ml), 32D-MPL cell proliferation of 6420 units/ml and a Specific Activity (units/ng), 32D-MPL cell proliferation / MGDF ELISA of 247 units/ng.
The matching figures for [Asn86] MGDF 1-174 (ligand): less than 10 units/ml and less than 22 units/ng.

The target of a further assay is T1, Mpl-X (the soluble extra-cellular …). Put plainly: Mpl-receptor affinity chromatography.
B1: the binding result is listed as “binds”.
Still for that read-out and setting: next, B2: “binds”.

Source of the values: patent publication US7399833 (dated 2008).
